Target: T1, human complement component C1q (human, UniProt P02745 23-245; P02746 28-253; P02747 29-245)
T1 construct: complement C1q subcomponent subunit A, human; complement C1q subcomponent subunit B, human; complement C1q subcomponent subunit C, human; Detected with fluorescent anti-C1q; also called complement C1q; source: bought: Sigma (C1740); copies: + +
Test: glycan array; AEAB-labelled D. immitis neutral N-glycan pool printed on NHS-modified glass slides; incubated first with human CRP (5 µg/ml), then serially with C1q and fluorescent anti-C1q; fluorescence read-out, mean of 10 spots
Conditions: both partners purified

T1 sequence (P02745 23-245, chain 1 of 3): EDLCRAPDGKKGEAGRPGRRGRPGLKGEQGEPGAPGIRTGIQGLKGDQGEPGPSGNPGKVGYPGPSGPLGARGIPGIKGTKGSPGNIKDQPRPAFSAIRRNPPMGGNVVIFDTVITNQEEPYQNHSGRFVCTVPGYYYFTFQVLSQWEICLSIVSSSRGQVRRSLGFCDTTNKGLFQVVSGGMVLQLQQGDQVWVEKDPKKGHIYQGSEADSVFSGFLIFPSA
T1 sequence (P02746 28-253, chain 2 of 3): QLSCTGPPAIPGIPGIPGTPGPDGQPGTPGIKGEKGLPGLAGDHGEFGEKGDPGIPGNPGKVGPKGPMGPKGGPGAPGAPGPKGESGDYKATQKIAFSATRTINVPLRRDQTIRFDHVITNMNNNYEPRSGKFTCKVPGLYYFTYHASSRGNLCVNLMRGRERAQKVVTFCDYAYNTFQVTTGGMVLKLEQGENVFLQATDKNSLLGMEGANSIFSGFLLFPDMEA
T1 sequence (P02747 29-245, chain 3 of 3): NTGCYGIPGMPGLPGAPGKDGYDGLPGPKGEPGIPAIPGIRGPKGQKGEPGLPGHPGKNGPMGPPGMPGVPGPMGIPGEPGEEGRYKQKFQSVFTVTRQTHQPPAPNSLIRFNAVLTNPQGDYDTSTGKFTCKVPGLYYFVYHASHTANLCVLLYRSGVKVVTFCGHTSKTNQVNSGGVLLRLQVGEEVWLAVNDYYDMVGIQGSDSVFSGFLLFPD

B1: natural human C-reactive protein (natural protein, UniProt P02741 19-224, looked up)
chain: QTDMSRKAFVFPKESDTSYVSLKAPLTKPLKAFTVCLHFYTELSSTRGYSIFSYATKRQDNEILIFWSKDIGYSFTVGGSEILFEVPEVTVAPVHICTSWESASGIVEFWVDGKPRVRKSLKKGYTVGAEASIILGQEQDSFGGNFEGSQSLVGDIGNVNMWDFVLSPDEINTIYLGGPFSPNVLNWRALKYEVQGEVFTKPQLWP
notes: C-reactive protein, human, natural; called pentameric in the discussion; also called CRP; human pentraxin C-reactive protein; source: bought: MPBio (215231505)
binding result: binds
